Test results: US20250236669A1 (BIRD ROCK BIO, published 2025)

Tests used:
[1] = target: T1, native full length human CB1 receptor (TRex-CHO A156 cells) (human, UniProt P21554 1-472); assay: cell-based or functional assay
[2] = target: T2, human CB2 (on TRex-CHO cells) (human, UniProt P34972 1-360); assay: flow cytometry, mean fluorescence intensity against antibody concentration, TRex-CHO human CB2 cells
T2 construct: whole, on cells; also called TRexCHO Human CB2; CB2 expression cell line

[3] = target: T3, mouse CB1 (on TRex-CHO cells) (mouse, UniProt P47746 1-473); assay: flow cytometry, mean fluorescence intensity against antibody concentration, TRex-CHO mouse CB1 cells
T3 construct: whole, on cells; also called TRexCHO Mouse CB1

[4] = target: T1, native full length human CB1 receptor …; assay: cell-based or functional assay; remark: listed apart in the source
[5] = target: T1, native full length human CB1 receptor …; assay: cell-based or functional assay; remark: listed apart in the source
[6] = target: T1, native full length human CB1 receptor …; assay: cell-based or functional assay; remark: listed apart in the source
[7] = target: T1, native full length human CB1 receptor …; assay: cell-based or functional assay; remark: listed apart in the source
[8] = target: T1, native full length human CB1 receptor …; assay: cell-based or functional assay; remark: listed apart in the source
[9] = target: T1, native full length human CB1 receptor …; assay: cell-based or functional assay; remark: listed apart in the source
[10] = target: T1, native full length human CB1 receptor …; assay: cell-based or functional assay; remark: listed apart in the source
[11] = target: T3, mouse CB1 (on TRex-CHO cells); assay: flow cytometry on cells expressing mouse CB1

T1 sequence (P21554 whole entry): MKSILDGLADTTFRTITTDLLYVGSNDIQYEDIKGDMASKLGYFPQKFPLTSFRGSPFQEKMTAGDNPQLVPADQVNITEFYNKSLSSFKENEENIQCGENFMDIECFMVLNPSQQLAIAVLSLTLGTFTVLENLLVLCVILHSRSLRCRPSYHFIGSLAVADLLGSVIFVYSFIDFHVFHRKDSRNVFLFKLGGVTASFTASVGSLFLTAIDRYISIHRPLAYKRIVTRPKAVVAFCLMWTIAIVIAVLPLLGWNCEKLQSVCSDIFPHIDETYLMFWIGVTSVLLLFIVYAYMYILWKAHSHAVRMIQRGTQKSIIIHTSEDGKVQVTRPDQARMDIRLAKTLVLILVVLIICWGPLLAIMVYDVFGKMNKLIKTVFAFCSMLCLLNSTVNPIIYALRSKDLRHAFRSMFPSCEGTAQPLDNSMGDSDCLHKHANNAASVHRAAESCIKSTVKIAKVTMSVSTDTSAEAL
T2 sequence (P34972 whole entry): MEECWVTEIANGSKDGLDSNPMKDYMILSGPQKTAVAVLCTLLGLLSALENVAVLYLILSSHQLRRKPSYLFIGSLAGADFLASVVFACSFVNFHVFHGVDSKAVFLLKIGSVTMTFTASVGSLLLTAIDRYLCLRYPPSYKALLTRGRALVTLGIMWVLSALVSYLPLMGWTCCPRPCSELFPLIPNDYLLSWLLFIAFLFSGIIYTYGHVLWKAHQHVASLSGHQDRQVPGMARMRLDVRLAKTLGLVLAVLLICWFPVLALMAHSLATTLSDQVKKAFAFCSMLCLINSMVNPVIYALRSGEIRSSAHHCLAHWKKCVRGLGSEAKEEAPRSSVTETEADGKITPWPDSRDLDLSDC
T3 sequence (P47746 whole entry): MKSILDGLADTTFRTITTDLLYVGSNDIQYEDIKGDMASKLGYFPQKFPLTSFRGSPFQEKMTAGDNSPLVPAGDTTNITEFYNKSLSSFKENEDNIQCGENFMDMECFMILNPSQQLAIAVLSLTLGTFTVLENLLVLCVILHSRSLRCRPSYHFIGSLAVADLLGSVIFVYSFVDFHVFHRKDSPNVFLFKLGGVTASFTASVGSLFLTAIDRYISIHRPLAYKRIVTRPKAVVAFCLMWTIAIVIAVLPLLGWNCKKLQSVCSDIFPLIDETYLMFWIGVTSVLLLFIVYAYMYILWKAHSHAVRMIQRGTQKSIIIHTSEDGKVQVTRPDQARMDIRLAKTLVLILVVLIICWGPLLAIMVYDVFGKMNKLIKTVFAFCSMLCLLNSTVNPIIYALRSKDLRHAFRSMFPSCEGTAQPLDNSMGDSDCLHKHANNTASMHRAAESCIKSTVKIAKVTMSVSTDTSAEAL

B1: PA2LR3-P6G7 (chimeric) (antibody, human IgG1, kappa, V domains shown)
VH: EVQLQQSGAELVRPGSSVKISCKASGFAFSNYWMNWVKQRPGQGLEWIGQIYPGDGDTNFNGKFKGRAILTADISSNTAYMQLSSLTSEDSAVYFCARSHGNYFPYWGQGTLVTVSA
VL: DIVLTQSPAIMSASLGERVTMTCTASSSVSSSYLHWYQQKPGSSPKLWIYSTSNLASGVPARFSGSGSGTSYSLTISSMEAEDAATYYCHQHHRSPPTFGAGTKLELKR
For B1, which “EC50, cAMP agonist functional assay, CB1 TRex CHO cells” value (“EC50, cAMP agonist functional assay” for short) [1] is on record?
Its value is greater than 300 nM.

B2: PA2LR3-P6B12 (chimeric) (antibody, human IgG1, kappa, V domains shown)
VH: EVQLQQSGAELVRPGSSVKISCKASGYAFSYYWMNWVKQRPGQGLEWIGQIYPGDGDTNYNGKFKGKATLTADKSSSTAYMQLSSLTSEDSAVYFCARSHGNYFAYWGQGTLVTVSA
VL: QIVLTQSPAIMSASLGERVTMTCTASSSVSSSYLHWYQQKPGSSPKLWIYSTSNLASGVPARFSGSGSGTSYSLTISSMEAEDAATYYCHQYHRSPLAFGAGTKLELKR
With B2 as the binder, how does the “EC50, cAMP assay in the presence of CP55940, CB1 TRex CHO cells” value [1] read?
Its value is roughly 1000 nM.

B3: P1C4-h2-IgG1 (antibody)
heavy: not shown
light: EIVLTQSPATLSLSPGERATLSCRASQSVSSSYLHWYQQKPGQAPRLLIYSTSNLASGIPARFSGSGSGTDFTLTISRLEPEDFAVYYCHQYHRSPPTFGQGTKVEIKRTVAAPSVFIFPPSDEQLKSGTASVVCLLNNFYPREAKVQWKVDNALQSGNSQESVTEQDSKDSTYSLSSTLTLSKADYEKHKVYACEVTHQGLSSPVTKSFNRGEC
Does B3 bind [2]?
Result: no binding (tested: about 300 nM)

Does B3 bind [3]?
Result: no binding (tested: about 300 nM)

B4: P1C4-h0-IgG1 (antibody, V domains shown)
VH: QVQLVQSGAEVKKPGSSVKVSCKASGGTFSYYWMNWVRQAPGQGLEWMGQIYPGDGETKYAQKFQGRVTITADKSTSTAYMELSSLRSEDTAVYYCARSHGNYLPYWGQGTLVTVSS
VL: EIVLTQSPATLSLSPGERATLSCRASQSVSSSYLHWYQQKPGQAPRLLIYSTSNLASGIPARFSGSGSGTDFTLTISRLEPEDFAVYYCHQYHRSPPTFGQGTKVEIKR
Does B4 bind [2]?
Result: no binding (tested: about 300 nM)

Does B4 bind [3]?
Result: no binding (tested: about 300 nM)

And the “IC50, cAMP functional assay, native human CB1 TRex-CHO cells” value [4]?
Its value is 146 nM.

And the “cAMP IC50, antagonist assay; Mean of Batch 1 [n]” value [5]?
Its value is 158 nM.

And the “cAMP IC50, antagonist assay; Mean of Batch 2 [n]” value [5]?
The value was 343 nM.

B5: P1C4-h4-IgG1 (antibody)
heavy: not shown
light: EIVLTQSPATLSLSPGERATLSCRASQSVSSSYLHWYQQKPGQAPRLLIYSTSNLASGIPARFSGSGSGTDFTLTISRLEPEDFAVYYCHQYHRSPPTFGQGTKVEIKRTVAAPSVFIFPPSDEQLKSGTASVVCLLNNFYPREAKVQWKVDNALQSGNSQESVTEQDSKDSTYSLSSTLTLSKADYEKHKVYACEVTHQGLSSPVTKSFNRGEC
notes: also called P1C4-H4 (YENG); P1C4-H4 (YENG)-IgG
Which results are given for B5?
binding result [2]: no binding (tested: about 300 nM); binding result [3]: no binding (tested: about 300 nM)

B6: P1C4-H4-IgG4 (antibody)
heavy: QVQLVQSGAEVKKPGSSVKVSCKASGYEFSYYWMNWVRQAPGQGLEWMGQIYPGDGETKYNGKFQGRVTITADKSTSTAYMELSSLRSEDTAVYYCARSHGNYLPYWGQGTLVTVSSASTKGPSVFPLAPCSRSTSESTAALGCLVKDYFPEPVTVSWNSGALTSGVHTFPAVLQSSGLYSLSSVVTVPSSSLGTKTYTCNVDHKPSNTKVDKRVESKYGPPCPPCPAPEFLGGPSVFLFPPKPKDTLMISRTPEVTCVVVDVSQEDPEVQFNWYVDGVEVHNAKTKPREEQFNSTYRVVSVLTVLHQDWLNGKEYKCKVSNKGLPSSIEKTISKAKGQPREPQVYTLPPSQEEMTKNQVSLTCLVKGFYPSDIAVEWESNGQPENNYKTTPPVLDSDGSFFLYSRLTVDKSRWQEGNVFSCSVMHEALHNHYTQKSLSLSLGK
light: EIVLTQSPATLSLSPGERATLSCRASQSVSSSYLHWYQQKPGQAPRLLIYSTSNLASGIPARFSGSGSGTDFTLTISRLEPEDFAVYYCHQYHRSPPTFGQGTKVEIKRTVAAPSVFIFPPSDEQLKSGTASVVCLLNNFYPREAKVQWKVDNALQSGNSQESVTEQDSKDSTYSLSSTLTLSKADYEKHKVYACEVTHQGLSSPVTKSFNRGEC
Which results are given for B6?
IC50, cAMP activity; after dialysis to pH 3 and 48 h at 40 C [6]: 139 nM; IC50, cAMP activity; after dialysis to pH 9 and 48 h at 40 C [6]: 64 nM; IC50, potency (cAMP); at 4 C for 33 days [7]: 62 nM; IC50, potency (cAMP); at 40 C for 33 days [7]: 71 nM; IC50, cAMP antagonist assay; after 5 freeze/thaw cycles [8]: 32 nM; cAMP IC50, antagonist assay; CHO-S batch [n] [5]: 51 nM; cAMP IC50, antagonist assay; Mean of Batch 1 [n] [5]: 54 nM; cAMP IC50, antagonist assay; Mean of Batch 2 [n] [5]: 54 nM

B7: P1C4-h2 Fab (Fab, V domains shown)
VH: QVQLVQSGAEVKKPGSSVKVSCKASGYEFSYYWMNWVRQAPGQGLEWMGQIYPGDGETKYAQKFQGRVTITADKSTSTAYMELSSLRSEDTAVYYCARSHGNYLPYWGQGTLVTVSS
VL: EIVLTQSPATLSLSPGERATLSCRASQSVSSSYLHWYQQKPGQAPRLLIYSTSNLASGIPARFSGSGSGTDFTLTISRLEPEDFAVYYCHQYHRSPPTFGQGTKVEIK
For B7, which “IC50 (read off the curve)” value [9] is on record?
Its value is roughly 30 nM.

What about the “IC50 cAMP assay (Fab), CB1 TRex CHO cells” value [10] of the same binder?
Its value is 52 nM.

B8: P1C4-h4 Fab (Fab, V domains shown)
VH: QVQLVQSGAEVKKPGSSVKVSCKASGYEFSYYWMNWVRQAPGQGLEWMGQIYPGDGETKYNGKFQGRVTITADKSTSTAYMELSSLRSEDTAVYYCARSHGNYLPYWGQGTLVTVSS
VL: EIVLTQSPATLSLSPGERATLSCRASQSVSSSYLHWYQQKPGQAPRLLIYSTSNLASGIPARFSGSGSGTDFTLTISRLEPEDFAVYYCHQYHRSPPTFGQGTKVEIK
How did the “IC50 (read off the curve)” value [9] turn out when B8 was run?
The value was roughly 40 nM.

What about the “IC50 cAMP assay (Fab), CB1 TRex CHO cells” value [10] of the same binder?
The value was 43 nM.

B9: PA2LR3-P2D3 (chimeric) (antibody, human IgG1, kappa, V domains shown)
VH: EVQLQQSGAELVRPGSSVKISCKASGYAFSYYWMNWVKQRPGQGLEWIGQIYPGDGDTNYNGKFKGKATLTADKSSSTAYMQLSSLTSEDSAVYFCARSHGSYFAYWGQGTLVTVSA
VL: DIELAQSPASLAVSLGQRATISCRASESVDSYGNSFMHWYQQKPGQPPKLLIYLASNLESGVPARFSGSGSRADFTLTIDPVEADDAATYYCLQYASSPPTFGAGTKLEIKR
For B9, which “EC50, cAMP agonist functional assay” value [1] is on record?
The value was greater than 300 nM.

B10: PA2LR3-P4B1 (chimeric) (antibody, human IgG1, kappa, V domains shown)
VH: EVQLQQSGAELVRPGSSVKISCKASGFAFSNYWMNWVKQRPGQGLEWIGQIYPGDGDTNFNGKFKGRAILTADISSNTAYMQLSSLTSEDSAVYFCARSHGNYFPYWGQGTLVTVSA
VL: QIVLTQSPAIMSASLGERVTMTCTASSSVSSSYLHWYQQKPGSSPKLWIYSTSNLASGVPARFSGSGSGTSYSLTISSMEAEDAATYYCHQYHRSPLTFGAGTKLELKR
For B10, which “EC50, cAMP agonist functional assay” value [1] is on record?
The value was greater than 300 nM.

B11: 36E12B6C2 IgG (antibody, V domains shown)
VH: QVQLQQSGAELVRPGSSVKISCKASGYEFSYYWMNWVKQRPGQGLQWIGQIYPGDGDTNYNGKFKGKATLTADKSSSTAYMHLTSLTSEDSAVYFCARSGGNPFAFWGQGTLVTVSA
VL: DIQMTQTSSSLSASLGDRVTFSCRASQDISNYLNWYQQKPDGTVKLLIYYTSRLHSGVTSRFRGSGSGTDYSLTISNLEQEDVATYFCQQGHTLPWSFGGGTKLEIKR
notes: Hybridoma-derived
Does B11 bind [11]?
Result: no binding
